Measured values taken from publication PMC4328881.

Legend:
[1] = target: 22 kDa (196 amino acids) OSM (human) (UniProt P13725); experiment: SPR
[2] = target: full-length 26 kDa (227 amino acids) OSM (human); experiment: SPR

22 kDa (196 amino acids) OSM (human), sequence (P13725 26-221): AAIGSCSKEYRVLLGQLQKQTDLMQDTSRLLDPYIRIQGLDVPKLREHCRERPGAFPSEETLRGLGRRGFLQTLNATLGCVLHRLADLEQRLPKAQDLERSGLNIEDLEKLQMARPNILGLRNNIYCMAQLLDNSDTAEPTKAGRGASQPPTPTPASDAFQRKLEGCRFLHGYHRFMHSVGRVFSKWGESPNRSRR
fibronectin, P02751 32-2477 (natural protein; ; other documents disagree on this pair), sequence (P02751 32-2477): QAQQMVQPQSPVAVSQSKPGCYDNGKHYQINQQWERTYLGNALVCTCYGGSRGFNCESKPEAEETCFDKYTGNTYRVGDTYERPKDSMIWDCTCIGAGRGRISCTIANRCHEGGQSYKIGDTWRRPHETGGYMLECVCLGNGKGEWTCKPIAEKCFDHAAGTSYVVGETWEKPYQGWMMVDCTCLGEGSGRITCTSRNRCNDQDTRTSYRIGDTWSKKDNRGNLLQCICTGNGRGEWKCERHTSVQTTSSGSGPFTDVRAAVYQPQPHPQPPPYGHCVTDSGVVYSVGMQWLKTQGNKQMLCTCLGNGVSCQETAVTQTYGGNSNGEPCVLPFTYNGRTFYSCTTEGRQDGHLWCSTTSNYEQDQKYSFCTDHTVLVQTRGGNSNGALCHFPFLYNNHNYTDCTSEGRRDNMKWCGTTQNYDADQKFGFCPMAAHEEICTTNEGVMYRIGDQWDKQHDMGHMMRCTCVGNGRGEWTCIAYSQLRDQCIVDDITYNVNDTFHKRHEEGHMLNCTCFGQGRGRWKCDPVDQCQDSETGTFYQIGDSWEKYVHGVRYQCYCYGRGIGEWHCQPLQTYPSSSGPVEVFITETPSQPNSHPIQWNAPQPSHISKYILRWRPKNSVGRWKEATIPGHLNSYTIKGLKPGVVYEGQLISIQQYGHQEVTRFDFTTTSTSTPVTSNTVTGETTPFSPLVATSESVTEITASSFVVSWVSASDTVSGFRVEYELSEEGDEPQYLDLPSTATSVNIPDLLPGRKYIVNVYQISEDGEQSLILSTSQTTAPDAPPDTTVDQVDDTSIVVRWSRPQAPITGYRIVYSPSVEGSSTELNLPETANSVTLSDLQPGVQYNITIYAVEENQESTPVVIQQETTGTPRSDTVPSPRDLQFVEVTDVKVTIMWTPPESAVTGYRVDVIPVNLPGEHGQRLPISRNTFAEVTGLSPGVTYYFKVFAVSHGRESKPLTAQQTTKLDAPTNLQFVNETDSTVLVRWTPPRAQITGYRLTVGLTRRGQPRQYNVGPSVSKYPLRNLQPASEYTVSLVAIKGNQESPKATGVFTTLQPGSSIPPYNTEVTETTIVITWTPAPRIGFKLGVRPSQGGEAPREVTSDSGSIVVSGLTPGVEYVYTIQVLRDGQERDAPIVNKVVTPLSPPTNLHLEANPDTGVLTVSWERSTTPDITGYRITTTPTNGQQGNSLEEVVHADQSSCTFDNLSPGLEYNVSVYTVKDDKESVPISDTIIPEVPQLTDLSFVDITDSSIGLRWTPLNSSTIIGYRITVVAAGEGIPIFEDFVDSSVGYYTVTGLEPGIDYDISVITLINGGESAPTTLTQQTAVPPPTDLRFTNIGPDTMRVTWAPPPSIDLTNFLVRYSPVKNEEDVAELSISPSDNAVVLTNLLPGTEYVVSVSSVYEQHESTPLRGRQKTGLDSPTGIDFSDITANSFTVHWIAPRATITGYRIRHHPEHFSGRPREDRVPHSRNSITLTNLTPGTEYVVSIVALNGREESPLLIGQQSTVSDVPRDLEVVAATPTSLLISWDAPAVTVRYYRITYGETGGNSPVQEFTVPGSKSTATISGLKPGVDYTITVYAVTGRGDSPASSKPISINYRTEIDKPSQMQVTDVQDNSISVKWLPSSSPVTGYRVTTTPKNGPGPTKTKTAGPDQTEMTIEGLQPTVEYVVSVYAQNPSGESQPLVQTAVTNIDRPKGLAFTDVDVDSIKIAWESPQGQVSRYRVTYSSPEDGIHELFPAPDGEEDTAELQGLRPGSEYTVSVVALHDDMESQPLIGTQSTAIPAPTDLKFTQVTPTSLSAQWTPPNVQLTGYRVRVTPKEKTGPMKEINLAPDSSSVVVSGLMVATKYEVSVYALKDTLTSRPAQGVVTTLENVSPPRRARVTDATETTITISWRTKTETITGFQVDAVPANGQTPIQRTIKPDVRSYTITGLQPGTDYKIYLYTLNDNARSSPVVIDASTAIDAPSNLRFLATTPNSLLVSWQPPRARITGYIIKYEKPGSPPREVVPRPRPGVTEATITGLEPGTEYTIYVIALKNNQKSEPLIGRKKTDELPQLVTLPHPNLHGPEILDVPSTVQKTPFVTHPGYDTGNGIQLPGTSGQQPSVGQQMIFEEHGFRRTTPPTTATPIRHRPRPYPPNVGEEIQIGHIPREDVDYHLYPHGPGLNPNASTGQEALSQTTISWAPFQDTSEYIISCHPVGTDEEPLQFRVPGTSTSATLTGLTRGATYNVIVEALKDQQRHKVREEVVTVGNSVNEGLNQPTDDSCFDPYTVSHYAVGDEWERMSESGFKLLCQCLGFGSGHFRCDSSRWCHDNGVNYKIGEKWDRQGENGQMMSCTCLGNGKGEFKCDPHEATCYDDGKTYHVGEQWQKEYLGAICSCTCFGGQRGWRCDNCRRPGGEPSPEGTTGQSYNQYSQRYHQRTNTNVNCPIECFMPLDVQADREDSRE

Row | Kd [1] | Kd [2] | Substance
1 | 936 nM | 0.844 µM | laminin (complex)
2 | – | 1170 µM | fibronectin, P02751 32-2477 (natural protein; ; other documents disagree on this pair)
